Source: US20150297672A1 (TXP PHARMA, published 2015)
Where no end group is shown, it is not given here. [ ]: non-standard residue; d: D form.

Assays:
[1] = biological target: T1, human melanocortin receptor type 1 (MC1r) (human, UniProt Q01726 1-317); experiment: cell-based or functional assay
[2] = biological target: T1, human melanocortin receptor type 1 …

T1 sequence (Q01726 whole entry): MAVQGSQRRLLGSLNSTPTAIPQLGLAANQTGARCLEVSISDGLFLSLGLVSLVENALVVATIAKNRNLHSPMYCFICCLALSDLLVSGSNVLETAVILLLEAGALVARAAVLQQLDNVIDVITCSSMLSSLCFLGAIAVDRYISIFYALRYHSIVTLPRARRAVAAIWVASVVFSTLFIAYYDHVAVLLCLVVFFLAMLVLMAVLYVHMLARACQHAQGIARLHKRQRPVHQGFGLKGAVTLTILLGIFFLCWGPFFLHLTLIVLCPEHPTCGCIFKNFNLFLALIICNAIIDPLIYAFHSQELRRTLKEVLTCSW

EC50, cAMP production [1]	IC50 [2]	Binder
0.2 nM	0.0645 nM	α-MSH analogue #1: Ac-(Ac-Lys-Lys-)Lys-Ser-Tyr-Ser-Met-Glu-His-Phe-Arg-Trp-Gly-Lys-Pro-Val-NH2 (Ac-(Ac-Lys-Lys-)Lys-SEQ ID NO:2) (also: bond at chain A 1 to a chain's C-terminus via isopeptide: branch C-terminus to Lys1 ε-amine, Branched peptide) peptide: Ac-KSYSMEHFRWGKPV-NH2 Ac-Lys-Lys
–	0.606 nM	γ-MSH analogue #2: Ac-(Ac-Lys-Lys-)Lys-Tyr-Val-Met-Gly-His-Phe-Arg-(D-Trp)-Asp-Arg-Phe-Gly-NH2 (D-Trp version of SEQ ID NO:8) (also: bond at chain A 1 to a chain's C-terminus via isopeptide: branch C-terminus to Lys1 ε-amine, Branched peptide; the second chain is the side branch on Lys1) peptide: Ac-KYVMGHFR[dW]DRFG-NH2 Ac-Lys-Lys
